Assay results from US20260001928A1 (CORTERIA PHARMACEUTICALS, priority 2022, published 2026).
*1 amine or outer side, *2 acyl side, *3 side chain or, on linkers, in order; H or OH if unused. Where no end group is shown, it is not given here. Side-chain parts run from the residue outwards. [ ]: non-standard residue; d: D form. The star is where a group is joined. C20 diacid = O=C(O)CCCCCCCCCCCCCCCCCCC(=O)*; γGlu = O=C(O)[C@H](CCC(=O)[*:2])N[*:1]; NMeI = CC[C@H](C)[C@H](NC)C(=O)O; AEEA = NCCOCCOCC(=O)O; Aib = CC(C)(N)C(=O)O

T1: CRF1R (corticotropin-releasing factor receptor 1), on the CRF1R-overexpression CHO-K1 cell line clone 2 (UniProt P34998 24-415, limits assumed)
T1 sequence (looked up): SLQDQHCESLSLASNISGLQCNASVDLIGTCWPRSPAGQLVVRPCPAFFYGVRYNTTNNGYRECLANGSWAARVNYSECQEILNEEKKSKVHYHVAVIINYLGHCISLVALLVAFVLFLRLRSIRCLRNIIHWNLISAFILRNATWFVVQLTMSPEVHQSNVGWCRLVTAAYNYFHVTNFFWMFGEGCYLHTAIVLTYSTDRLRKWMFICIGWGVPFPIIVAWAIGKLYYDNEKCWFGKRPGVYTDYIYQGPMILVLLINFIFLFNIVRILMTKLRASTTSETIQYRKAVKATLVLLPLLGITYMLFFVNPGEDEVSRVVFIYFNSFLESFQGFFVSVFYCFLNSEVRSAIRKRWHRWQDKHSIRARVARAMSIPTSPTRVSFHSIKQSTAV

B1: peptide of SEQ ID NO: 243 (peptide)
peptide: Ac-IVLSLD[dV]PIKLK([γGlu-γGlu-C20 diacid])KILLEQEKQKKQREQAETN[Aib]QILAQV-NH2
SMILES: CC[C@H](C)[C@H](NC(C)=O)C(=O)N[C@H](C(=O)N[C@@H](CC(C)C)C(=O)N[C@@H](CO)C(=O)N[C@@H](CC(C)C)C(=O)N[C@@H](CC(=O)O)C(=O)N[C@@H](C(=O)N1CCC[C@H]1C(=O)N[C@H](C(=O)N[C@@H](CCCCN)C(=O)N[C@@H](CC(C)C)C(=O)N[C@@H](CCCCNC(=O)CC[C@H](NC(=O)CC[C@H](NC(=O)CCCCCCCCCCCCCCCCCCC(=O)O)C(=O)O)C(=O)O)C(=O)N[C@@H](CCCCN)C(=O)N[C@H](C(=O)N[C@@H](CC(C)C)C(=O)N[C@@H](CC(C)C)C(=O)N[C@@H](CCC(=O)O)C(=O)N[C@@H](CCC(N)=O)C(=O)N[C@@H](CCC(=O)O)C(=O)N[C@@H](CCCCN)C(=O)N[C@@H](CCC(N)=O)C(=O)N[C@@H](CCCCN)C(=O)N[C@@H](CCCCN)C(=O)N[C@@H](CCC(N)=O)C(=O)N[C@@H](CCCNC(=N)N)C(=O)N[C@@H](CCC(=O)O)C(=O)N[C@@H](CCC(N)=O)C(=O)N[C@@H](C)C(=O)N[C@@H](CCC(=O)O)C(=O)N[C@H](C(=O)N[C@@H](CC(N)=O)C(=O)NC(C)(C)C(=O)N[C@@H](CCC(N)=O)C(=O)N[C@H](C(=O)N[C@@H](CC(C)C)C(=O)N[C@@H](C)C(=O)N[C@@H](CCC(N)=O)C(=O)N[C@H](C(N)=O)C(C)C)[C@@H](C)CC)[C@@H](C)O)[C@@H](C)CC)[C@@H](C)CC)C(C)C)C(C)C
B2: peptide of SEQ ID NO: 240 (peptide)
peptide: Ac-IVLSLD[dV]PIKLK([AEEA-AEEA-γGlu-C20 diacid])KILLEQEKQKAQREQAETN[Aib]QILAQV-NH2
SMILES: CC[C@H](C)[C@H](NC(C)=O)C(=O)N[C@H](C(=O)N[C@@H](CC(C)C)C(=O)N[C@@H](CO)C(=O)N[C@@H](CC(C)C)C(=O)N[C@@H](CC(=O)O)C(=O)N[C@@H](C(=O)N1CCC[C@H]1C(=O)N[C@H](C(=O)N[C@@H](CCCCN)C(=O)N[C@@H](CC(C)C)C(=O)N[C@@H](CCCCNC(=O)COCCOCCNC(=O)COCCOCCNC(=O)CC[C@H](NC(=O)CCCCCCCCCCCCCCCCCCC(=O)O)C(=O)O)C(=O)N[C@@H](CCCCN)C(=O)N[C@H](C(=O)N[C@@H](CC(C)C)C(=O)N[C@@H](CC(C)C)C(=O)N[C@@H](CCC(=O)O)C(=O)N[C@@H](CCC(N)=O)C(=O)N[C@@H](CCC(=O)O)C(=O)N[C@@H](CCCCN)C(=O)N[C@@H](CCC(N)=O)C(=O)N[C@@H](CCCCN)C(=O)N[C@@H](C)C(=O)N[C@@H](CCC(N)=O)C(=O)N[C@@H](CCCNC(=N)N)C(=O)N[C@@H](CCC(=O)O)C(=O)N[C@@H](CCC(N)=O)C(=O)N[C@@H](C)C(=O)N[C@@H](CCC(=O)O)C(=O)N[C@H](C(=O)N[C@@H](CC(N)=O)C(=O)NC(C)(C)C(=O)N[C@@H](CCC(N)=O)C(=O)N[C@H](C(=O)N[C@@H](CC(C)C)C(=O)N[C@@H](C)C(=O)N[C@@H](CCC(N)=O)C(=O)N[C@H](C(N)=O)C(C)C)[C@@H](C)CC)[C@@H](C)O)[C@@H](C)CC)[C@@H](C)CC)C(C)C)C(C)C
B3: peptide of SEQ ID NO: 241 (peptide)
peptide: Ac-IVLSLD[dV]PIKLK([γGlu-γGlu-C20 diacid])KILLEQEKQKEQREQAETN[Aib]QILAQV-NH2
SMILES: CC[C@H](C)[C@H](NC(C)=O)C(=O)N[C@H](C(=O)N[C@@H](CC(C)C)C(=O)N[C@@H](CO)C(=O)N[C@@H](CC(C)C)C(=O)N[C@@H](CC(=O)O)C(=O)N[C@@H](C(=O)N1CCC[C@H]1C(=O)N[C@H](C(=O)N[C@@H](CCCCN)C(=O)N[C@@H](CC(C)C)C(=O)N[C@@H](CCCCNC(=O)CC[C@H](NC(=O)CC[C@H](NC(=O)CCCCCCCCCCCCCCCCCCC(=O)O)C(=O)O)C(=O)O)C(=O)N[C@@H](CCCCN)C(=O)N[C@H](C(=O)N[C@@H](CC(C)C)C(=O)N[C@@H](CC(C)C)C(=O)N[C@@H](CCC(=O)O)C(=O)N[C@@H](CCC(N)=O)C(=O)N[C@@H](CCC(=O)O)C(=O)N[C@@H](CCCCN)C(=O)N[C@@H](CCC(N)=O)C(=O)N[C@@H](CCCCN)C(=O)N[C@@H](CCC(=O)O)C(=O)N[C@@H](CCC(N)=O)C(=O)N[C@@H](CCCNC(=N)N)C(=O)N[C@@H](CCC(=O)O)C(=O)N[C@@H](CCC(N)=O)C(=O)N[C@@H](C)C(=O)N[C@@H](CCC(=O)O)C(=O)N[C@H](C(=O)N[C@@H](CC(N)=O)C(=O)NC(C)(C)C(=O)N[C@@H](CCC(N)=O)C(=O)N[C@H](C(=O)N[C@@H](CC(C)C)C(=O)N[C@@H](C)C(=O)N[C@@H](CCC(N)=O)C(=O)N[C@H](C(N)=O)C(C)C)[C@@H](C)CC)[C@@H](C)O)[C@@H](C)CC)[C@@H](C)CC)C(C)C)C(C)C
B4: peptide of SEQ ID NO: 242 (peptide)
peptide: [NMeI]VLSLD[dV]PIKLK([γGlu-γGlu-C20 diacid])KILLEQEKQKEQREQAETN[Aib]QILAQV-NH2
modifications: N-terminus assumed
SMILES: CC[C@H](C)[C@H](NC)C(=O)N[C@H](C(=O)N[C@@H](CC(C)C)C(=O)N[C@@H](CO)C(=O)N[C@@H](CC(C)C)C(=O)N[C@@H](CC(=O)O)C(=O)N[C@@H](C(=O)N1CCC[C@H]1C(=O)N[C@H](C(=O)N[C@@H](CCCCN)C(=O)N[C@@H](CC(C)C)C(=O)N[C@@H](CCCCNC(=O)CC[C@H](NC(=O)CC[C@H](NC(=O)CCCCCCCCCCCCCCCCCCC(=O)O)C(=O)O)C(=O)O)C(=O)N[C@@H](CCCCN)C(=O)N[C@H](C(=O)N[C@@H](CC(C)C)C(=O)N[C@@H](CC(C)C)C(=O)N[C@@H](CCC(=O)O)C(=O)N[C@@H](CCC(N)=O)C(=O)N[C@@H](CCC(=O)O)C(=O)N[C@@H](CCCCN)C(=O)N[C@@H](CCC(N)=O)C(=O)N[C@@H](CCCCN)C(=O)N[C@@H](CCC(=O)O)C(=O)N[C@@H](CCC(N)=O)C(=O)N[C@@H](CCCNC(=N)N)C(=O)N[C@@H](CCC(=O)O)C(=O)N[C@@H](CCC(N)=O)C(=O)N[C@@H](C)C(=O)N[C@@H](CCC(=O)O)C(=O)N[C@H](C(=O)N[C@@H](CC(N)=O)C(=O)NC(C)(C)C(=O)N[C@@H](CCC(N)=O)C(=O)N[C@H](C(=O)N[C@@H](CC(C)C)C(=O)N[C@@H](C)C(=O)N[C@@H](CCC(N)=O)C(=O)N[C@H](C(N)=O)C(C)C)[C@@H](C)CC)[C@@H](C)O)[C@@H](C)CC)[C@@H](C)CC)C(C)C)C(C)C

How the values were obtained:
[1] = target: T1, CRF1R (corticotropin-releasing factor …); assay: cell-based or functional assay
[2] = target: Rat CRF2 a (corticotropin-releasing factor receptor 2), on the A7R5 rat aortic smooth muscle cell line (rat, UniProt P47866 20-411); assay: cell-based or functional assay
Sequence of Rat CRF2 a (corticotropin-releasing factor receptor 2), on the A7R5 rat aortic smooth muscle cell line (P47866 20-411): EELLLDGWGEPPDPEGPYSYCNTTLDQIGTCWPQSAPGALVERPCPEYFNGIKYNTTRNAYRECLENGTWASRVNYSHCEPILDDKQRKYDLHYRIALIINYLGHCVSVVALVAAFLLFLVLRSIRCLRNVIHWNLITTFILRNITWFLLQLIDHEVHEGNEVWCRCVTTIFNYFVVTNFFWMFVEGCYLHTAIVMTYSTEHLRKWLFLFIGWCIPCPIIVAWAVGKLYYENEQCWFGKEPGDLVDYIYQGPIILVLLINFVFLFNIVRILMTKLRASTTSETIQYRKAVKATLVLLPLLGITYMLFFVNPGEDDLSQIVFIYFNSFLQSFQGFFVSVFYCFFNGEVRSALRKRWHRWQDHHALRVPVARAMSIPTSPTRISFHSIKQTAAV

Binder	EC50 [nM] (cAMP, CRF1R-overexpression CHO-K1 cells) [1]	Emax (% I) (cAMP, 100% = Sauvagine at 100 nM) [1]	EC50 [nM] 0% HSA (cAMP, A7R5 rat aortic smooth muscle cells) [2] [nM]
B1	> 250	8	0.09
B2	> 250	4	2.3
B3	> 250	7	3.52
B4	> 250	6	0.4
